assay: yeast display, Sf9 membrane polyspecificity reagent, FACS + sequencing; frameworks hold sequencing errors
In short: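 Synthetic nanobody libraries on Saccharomyces cerevisiae BJ5465 were galactose-induced for 36–48 hours, stained 1 hour at 4 °C with 10% biotinylated, detergent-solubilized Sf9 membrane reagent and enriched on streptavidin microbeads. FACS then separated cells into low and high (top ~1%) gates by anti-HA (expression) and streptavidin (reagent binding) fluorescence. Genes were colony-PCR amplified, MiSeq 2 × 250 sequenced and CDR-length filtered. A clone's polyreactivity label is that of its gate of origin.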

Sequence | polyreactivity (PSR sort gate)
QVQLVESGGGLVQAGGSLRLSCAASGFIFHIYAMGWYRQAPGKERELVAVITSGGSTYYADSVKGRFTISRDNAKNTVYLQMNSLKPEDTAVYYCAARYRRSWLEYDYWGQGTQVTVSS | high polyreactivity
QVQLVESGGGLVQAGGSLRLSCAASGFIFHKYVMGWYRQAPGKERELVAAISRSGASTYYADSVKGRFTISRDNAKNTVYFQMNSLKPEDTAVYYCAARYRRRVIATRDYWGQGTQVTVSS | high polyreactivity
QVQLVESGGGLVQAGGSLRLSCAASGFIFHLYAMGWYRQAPGKERELVAVISGGGSTYYADSVKGRFTISRDNAKNTVYLQMNSLKPEDTAVYYCNVGRYYRYATGGDYWGQGTQVTVSS | high polyreactivity
QVQLVESGGGLVQAGGSLRLSCAASGFIFHRYAMGWYRQAPGKERELVAAITGRGSSTYYADSVKGRFTISRDNAKNTVYLQMNSLKPEDTAVYYCNAYRYQVYDTGWFGYWGQGTQVTVSS | high polyreactivity
QVQLVESGGGLVQAGGSLRLSCAASGFIFHRYVMGWSRQAPGKERELVAAISSGGSTNYADSVKGRFTISRDNAKNTVYLQMNSLKPEDTAVYYCAADGFYYRNWGRFRYYYWGQGTQVTVSS | low polyreactivity
QVQLVESGGGLVQAGGSLRLSCAASGFIFHTYAMGWYRQAPGKERELVAAISGGTSSTYYADSVKGRFTISRDNAKNTVYLQMNSLKPEDTAVYYCAARSRRGGYPRYYYWGQGTQVTVSS | high polyreactivity
QVQLVESGGGLVQAGGSLRLSCAASGFIFHVYAMGWYRQAPGKEREFVAGISWRGGRTYYADSVKGRFTISRDNAKNTVYLQLNSLKPEDTAVYYCAALGLNAGGKFDYWGQGTQVTVSS | high polyreactivity
QVQLVESGGGLVQAGGSLRLSCAASGFIFIANGMGWNSQAPGKERALVAAITSGGGNTYYADSVKGRFTISRDNAKNTVYLQMNSLKPEDTAVYYCNAPSYGKFDYWGQGTQVTVSS | high polyreactivity
QVQLVESGGGLVQAGGSLRLSCAASGFIFIAYVMGWYRQAPGKERELVAAITRSGASTYYADSVKGRFTISRDNAKNTVYLQMNSLKPVDTAVYYCAARGAYSFYGYYYWGQGTQVTVSS | high polyreactivity
QVQLVESGGGLVQAGGSLRLSCAASGFIFINYAMGWNRPAPGKERELVAAISSRGGSTYYADSVKGRFTISRDNAKNTVYLQMNSLKPEDTAVYYCNADQSFRIVTFDYWGQGTQVTVSS | high polyreactivity
QVQLVESGGGLVQAGGSLRLSCAASGFIFIRNAMGWYRQAPGKERELVAAISSGCRTYYADSVKGRFTISRDNAKNTVYLQMNSLKPEDTAVYYCATRPHRPRGHSVGQYDYWGQGTQVTVSS | high polyreactivity
QVQLVESGGGLVQAGGSLRLSCAASGFIFKDNARGWYRQATGKEREFVASITASGGSTTYADSVKGRFTISRDTAKNTVYLQMTSLKPEDTAVYYCAARVGWNKRRYDYWGQGTQVTVSS | low polyreactivity
QVQLVESGGGLVQAGGSLRLSCAASGFIFKGNAMGWYRPAPGKERELVAAISSRGGSTYYADSVKGRFTISRDNAKNTVYLQMNSLKPEDTAVYYCATRVYWRNDYWGQGTQVTVSS | high polyreactivity
QVQLVESGGGLVQAGGSLRLSCAASGFIFKGYAMGWYRQAPGKERELVAAISSGGSTNYADSVKGRFTISRDNAKNTVYLQMNSLKPEDTAVYYCAAGRYIRHYWYGYWGQGTQVTVSS | high polyreactivity
QVQLVESGGGLVQAGGSLRLSCAASGFIFKHYAMGWYRQAPGKERELVAAITISASRTYYADSVKGRFTISRDNAKNTVYLQMNSLKPEDTAVYYCARRLLRGSDWGQGTQVTVSS | high polyreactivity
QVQLVESGGGLVQAGGSLRLSCAASGFIFKIYAMGWYRQAPGKERELVAAISSGDNTNYADSVKGRFTISRDNAKNTVYLQMNSLKPEDTAVYYCAARAYRWRSFSTMYYWGQGTQVTVSS | high polyreactivity
QVQLVESGGGLVQAGGSLRLSCAASGFIFKKYAMGWYRQAPGKERELVAAISWSGGNTYYADSVKGRFTISRDNAKNTVYLQMNSLKPEDTAVYYCNAAGRRYKFDYWGQGTQVTVSS | high polyreactivity
QVQLVESGGGLVQAGGSLRLSCAASGFIFKRYAMGWYRQAPGKERELVAAISTYSGGRTYYADSVKGRFTISRDNAKNSVYLQMNSLKPEDTAVYYCNARKYVGFWSRYDYWGQGTQVTVSS | high polyreactivity
QVQLVESGGGLVQAGGSLRLSCAASGFIFKRYAMGWYRQAPGKERELVAAITGSGSRTYYADSVKGRFTISRDNAKNTVYLQMNSLKPEDTAVYYCNKDRRPTADFGYWGQGTQVTVSS | high polyreactivity
QVQLVESGGGLVQAGGSLRLSCAASGFIFKRYGMGWYRQAPGKERELVAAISYSGGSTYYADSVKGRFTISRDNAKNTVYLQMNSLKPEDTAVYYCKATIHYNAGWTMGSWGQGTQVTVSS | high polyreactivity
QVQLVESGGGLVQAGGSLRLSCAASGFIFKRYTMGWYRPAPGKERELVATINWNGGNTYYADSVKGRFTISRDNAKNTVYLQMNSLKPEDTAVYYCNARYWRGQGWPGYDYWGQGTQVTVSS | high polyreactivity
QVQLVESGGGLVQAGGSLRLSCAASGFIFKVYAMGWYRQAPGKERELVAAISSRGGRTNYADSVKGRFTISRDNAKNTVYLQMNSLKPEDTAVYYCATGAAGAYDYWGQGTQVTVSS | high polyreactivity
QVQLVESGGGLVQAGGSLRLSCAASGFIFKYYTMGWYRPAPGNERELVAAISKNAGSTYYADSVKGRFTISRDNAKNTVYLQMNSLKPEDTAVYYCARTYSTWYYYWGQGTQVTVSS | high polyreactivity
QVQLVESGGGLVQAGGSLRLSCAASGFIFLAYTMGWYRQAPGKERELVAAISTSGGSTYYEDSVKGRFTISRDNAKNTVYLQMNSLKPEDTAVYYCAARYRWGRYDYWGQGTQVTVSS | high polyreactivity
QVQLVESGGGLVQAGGSLRLSCAASGFIFLDNAMGWNRQAPGKERELVDAISSTGSTYADSVKGRFTISRDNAKNTVYLQMNSLKPEDTAVYYCAADIEVSWDDDGYYPEYDYWGQGTQVTVSS | low polyreactivity
QVQLVESGGGLVQAGGSLRLSCAASGFIFLGNAMGWYRQAPGKERELVAAISSGGSTYADSVKGRFTISRDNAKNTVYLQMNSLKPEDTAVYYCAVDRAFRAQNYHEYDYWGQGTQVNVSS | low polyreactivity
QVQLVESGGGLVQAGGSLRLSCAASGFIFLGYAMGWYRPAPGKERELVATITWRGGSTYYADSVKGRFTISRDNAKNTVYLQMNSLKPEDTAVYYCAATRGWLHSFARDDHDYWGQGTQVTVSS | high polyreactivity
QVQLVESGGGLVQAGGSLRLSCAASGFIFLGYAMGWYRQAPGKEREFVAGITITGGSTYYADSVKGRFTISRDNAKNTVYLQMNSLKPEDTAVYYCNAESNLYRRRRNYWGQGTQVTVSS | low polyreactivity
QVQLVESGGGLVQAGGSLRLSCAASGFIFLLYDMGWYRQAPGKERELVAAITSDGTTNYADSVKGRFTISRDNAKNTVYLQMNSLKPEDTAVYYCAADGFTRWGRYDYWGQGTQVTVSS | high polyreactivity
QVQLVESGGGLVQAGGSLRLSCAASGFIFLPYAKGWYRQAPGKERELVAAITRGGRTYYADSVKGRFTISRDNAKNTVYLQMNSLKPEDTAVYYCAATTYLVWGYNYWGQGTQVTVSS | low polyreactivity

— the nanobody polyreactivity screen of Harvey et al. (2022)
